The source of these data is patent publication US7790697B2, “Compositions and methods for inhibiting the synthesis or expression of MMP-1” (Trustees of Dartmouth College, priority 2004, dated 2010).

For one series, the system named is MMP-13 mRNA. Nature of the series: Specificity qRT-PCR, MMP-13 mRNA in stable MDA-231 cells. It is filed as cell-based, human. The settings on record: stable MDA-231 cell lines, 24 hour serum-free; group average ± S.D.; P=0.3 vs empty vector. An excerpt:
RNA Isolation and Real-Time RT-PCR. […] Real-Time PCR Primer Sequences. […] ID NO:7; MMP-1 reverse [NT] ID NO:8; MMP-2 forward [NT] ID NO:9; MMP-2 reverse [NT] ID NO:10; MMP-9 forward [NT] ID NO:11; MMP-9 reverse [NT] ID NO:12; MMP-13 forward [NT], SEQ ID NO:13; MMP-13 reverse [NT] ID NO:14; MMP-14 forward [NT] ID NO:15; MMP-14 reverse [NT] ID NO:16; GAPDH forward [NT] ID NO:17; GAPDH reverse [NT] ID NO:18; eGFP forward [NT] ID NO:19; eGFP reverse [NT] ID NO:20. Real-Time PCR Standards.
A general note: In qPCR the cycle at which signal appears reflects the starting amount.

A further series concerns MDA-231 cells. The experiment in a line: Cell proliferation assay (MTT). It is filed as cell-based. The settings on record: from 24 to 48 hours (in 24 hours); p=0.13 vs empty vector. As to the method:
Cell Proliferation Assay. The proliferation rate of the stably transfected MDA-231 cell lines at 24 and 48 hours was determined with a MTT assay as described in the manufacturer's protocol (ATCC). The optimum cell count was 10,000 cells per well of a 96-well tissue culture dish.
Therefore, the only measured differences between the two groups of cell lines were the levels of MMP-1 mRNA and protein.

The next series concerns MMP-1 protein. The experiment in a line: ELISA for MMP-1 protein in serum-free medium of stable MDA-231 cells. The following applies: for ng of MMP-1 protein per μg of total protein: average ± S.D. Format: cell-based, human. As to the method: ELISA for MMP-1 Protein. MMP-1 protein in serum-free culture medium of stably transfected MDA-231 cells was quantified with the human MMP-1 BIOTRAK™ ELISA system that measures both latent and active enzyme (Amersham). Cells were grown in six-well culture dishes with 1 mL of serum-free medium, and after 24 hours of incubation, 100 μL of a 1:30 dilution of the medium was used for the ELISA assays. The cells remaining in the wells were lysed with 350 μL passive lysis buffer (PROMEGA®, Madison, Wis.), and 70 μl was used in a Bradford assay (BIO-RAD®, Hercules, Calif.) to determine the total protein content. The ng of MMP-1 protein from the ELISA results was normalized to μg total protein.
After initial neomycin selection and isolation of individual stable cell lines, MMP-1 mRNA and protein levels were determined using quantitative RT-PCR (qRT-PCR) and ELISA. MMP-1 mRNA levels were measured in RNA harvested from stably transfected cell lines after a 24 hour incubation in serum-free medium and were normalized to GAPDH mRNA levels. MMP-1 protein levels were measured in the serum-free media of the cell lines after 24 hours of incubation and were normalized to total protein content of the cells. The ELISA measured total (active and zymogen) forms of MMP-1 protein. […] To control for differences introduced into the cell lines during selection, these three individual cell lines for each group were pooled, and all subsequent experiments were performed on pooled cells.

The test system of series [1] is interferon-responsive genes. The experiment in a line: Interferon response RT-PCR assay. Format: cell-based, human. The following applies: pooled stable MDA-231 cell lines. As to the method: Interferon Response RT-PCR Assay. RNA pooled from MDA-231 ells containing empty vector or the MMP-1 shRNA were reverse-transcribed with M-MLV reverse transcriptase (INVITROGEN™) according to the manufacturer's instructions. Briefly, 3 μg of RNA, 99 ng random hexamers, and 10 nmoles of dNTP were combined to a total volume of 12 μL. The mixture was incubated at 65° C. for 5 minutes and cooled to 4° C. Four μL of 5× […], 2 μL of 0.1 M DTT, and 1 μL of RNase inhibitor A (40 U/μL) were then added to the reaction and it was incubated at 37° C. for 2 minutes. One μL of M-MLV reverse transcriptase was added to the reaction and incubated at 25° C. for 10 minutes, 37° C. for 50 minutes and 70° C. for 15 minutes. The expression levels of 11 interferon-responsive genes and GAPDH were then estimated using semi-quantitative PCR and the human interferon-response MULTIGENE-12™ RT-PCR Profiling Kit (SuperArray Bioscience Co., Frederick, Md.).
To determine whether the MMP-1 shRNA was producing a shRNA-associated interferon response in the stable cell lines, the expression levels of 11 interferon-responsive genes was compared between pools of stable cell lines (Bridge, et al. (2003) Nat. Genet. 34:263-4).

The next series concerns MMP-1 mRNA. Nature of the series: MMP-1 mRNA by real-time RT-PCR in transiently transfected NIH/3T3 cells. Format: cell-based, human. The following applies: NIH/3T3 cells co-transfected with pCMV-MMP-1 and peGFP; 48 hours after transfection; normalized to eGFP mRNA; P=0.015. As to the method: Transfection of NIH/3T3 and MDA-231 Cells. NIH/3T3 cells were transiently transfected with LIPOFECTAMINE™ 2000 (INVITROGEN™, Carlsbad, Calif.) along with 0.5 μg peGFP, 0.5 μg pCMV-MMP-1, and 2 μg PSUPER™-MMP-1 shRNA or PSUPER™ with no insert. Transfection efficiency was monitored using eGFP signal. Total cellular RNA was harvested 48 hours after transfection and analyzed for MMP-1 mRNA by real-time RT-PCR. MDA-231 cells were stably transfected in triplicate with LIPOFECTAMINE™ 2000 (INVITROGEN™, Carlsbad, Calif.) and 2 μg of the PSUPER™.Retro.Neo.GFP plasmid containing the MMP-1 shRNA, the scrambled sequence or just the empty vector. Stable cell lines were selected by growth in the presence of 1 mg/mL G418 (STRATAGENE®, La Jolla, Calif.). Individual, stable cell lines were isolated with cloning disks according to the manufacturer's instructions (PGC Scientifics, Frederick, Md.).
RNA Isolation and Real-Time RT-PCR.
To test the efficacy of the shRNA inhibition of MMP-1 expression, shRNA composed of SEQ ID NO:1 and SEQ ID NO:2 was cloned it into the PSUPER™ shRNA vector. Two PSUPER™ plasmids were used; one with the MMP-1 shRNA sequence to block MMP-1 gene expression, and one with only the plasmid vector. […]

B1: MMP-1 shRNA: Vector-expressed small hairpin RNA, SEQ ID NO:1 (sense) and SEQ ID NO:2 (antisense), specific to bases 234-252 of MMP-1 mRNA (nucleic acid)
sense: GATCCCCACCAGATGCTGAAACCCTGTTCAAGAGACAGGGTTTCAGCATCTGGTTTTTTGGAAA
antisense: AGCTTTTCCAAAAAACCAGATGCTGAAACCCTGTCTCTTGAACAGGGTTTCAGCATCTGGTGGG
modifications: the letters are possibly those of the target site
With B1, in the series with MMP-13 mRNA, the “MMP-13 mRNA level” value is 0.5 ± 0.2 copies of the target gene/pg GAPDH. The “fold increase in metabolic activity” value in the series with MDA-231 cells came to 2.03±0.06 fold. For the same molecule, the “ng of MMP-1 protein per μg of total protein” value in the series on MMP-1 protein (Group of cell lines D1, Y2, Y7, P=0.002 vs empty vector) is 0.46 ± 0.04 ng per μg of total protein; with MMP-1 protein (MDA-231 cell line D1), 0.49 ± 0.03 ng per μg of total protein; in the series with MMP-1 protein (MDA-231 cell line Y2), 0.47 ± 0.01 ng per μg of total protein; in the series on MMP-1 protein (MDA-231 cell line Y7), 0.42 ± 0.04 ng per μg of total protein. In the series with MMP-1 protein (three stable MDA-231 cell lines, 24 hour serum-free medium), the “reduction in MMP-1 protein levels compared to empty vector cell lines” value is on record as “greater than 90%”. For the same molecule, in series [1], the “interferon response overall (11 interferon-responsive genes)” value was “no consistent upregulation of interferon-responsive gene expression”. Moreover, the “increase in expression of MxA and GBP1 compared to empty vector cell lines” value in series [1] (semi-quantitative RT-PCR) is ~50%. The “MMP-1 mRNA levels lower than empty vector” value with MMP-1 mRNA was 73%.
